T1: papain (UniProt P00784 134-345)
T1 construct: Papain, cysteine protease bought from Sigma; source: bought: Sigma
T1 sequence (looked up): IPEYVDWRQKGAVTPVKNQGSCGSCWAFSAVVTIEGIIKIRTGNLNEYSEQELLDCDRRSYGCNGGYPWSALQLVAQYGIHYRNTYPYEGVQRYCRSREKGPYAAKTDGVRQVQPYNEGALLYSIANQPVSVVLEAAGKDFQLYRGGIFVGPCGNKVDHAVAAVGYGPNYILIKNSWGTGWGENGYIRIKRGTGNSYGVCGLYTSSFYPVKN

T2: recombinant cathepsin-B cysteine protease of N. fowleri (NfCB) (Naegleria fowleri)
T2 chain: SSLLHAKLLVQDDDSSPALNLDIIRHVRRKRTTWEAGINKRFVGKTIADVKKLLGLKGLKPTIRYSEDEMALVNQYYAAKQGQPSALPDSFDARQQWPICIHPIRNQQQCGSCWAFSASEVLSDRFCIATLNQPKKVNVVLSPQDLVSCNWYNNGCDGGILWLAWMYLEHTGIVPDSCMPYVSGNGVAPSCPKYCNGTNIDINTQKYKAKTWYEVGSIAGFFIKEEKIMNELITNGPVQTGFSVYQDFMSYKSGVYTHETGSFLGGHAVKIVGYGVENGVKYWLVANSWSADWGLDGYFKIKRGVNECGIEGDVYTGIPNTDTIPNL

B1: recombinant cysteine protease inhibitor of Naegleria fowleri (NfCPI), lacking the signal peptide (natural protein)
chain: ALPIATNVIPGGRQPISNQTLIEELTTFIPKASSNGVCRVTRVLSAQQQVVAGTIYYLVVEVSTSCDATSSQTFCEKLKIFRPLVTRSVENPQLQLQKEQRVDCNTP
notes: ORF of 136 residues; the forward primer encodes LPIATNV as its first residues, the reverse primer ends at the stop codon; cDNA from strain Carter NF69 (ATCC 30215); also called recombinant NfCPI; source: E. coli M15 (pREP14), pQE-9, purified (Ni-NTA)

Tests used:
[1] = biological target: recombinant cathepsin-B-like cysteine protease of N. fowleri (NfCBL) (Naegleria fowleri); test: enzyme inhibition assay (residual activity on a fluorogenic substrate); 10 nM enzyme incubated with 0-100 nM NfCPI in 50 mM sodium acetate pH 6.0, 20 min, RT; substrate Z-LR-MCA in 50 mM sodium acetate pH 5.0 with 10 mM DTT; Ki calculated from IC50 and Km, non-linear regression
papain = biological target: T1, papain; test: as above; settings: both partners purified
[2] = biological target: T2, recombinant cathepsin-B cysteine …; test: as above; settings: both partners purified
[3] = biological target: the molecule itself; test: non-reducing PAGE; purified NfCPI, with 0-10% SDS, without β-mercaptoethanol, with or without heating at 100 °C for 5 min

Molecule	Ki [1]	Ki (papain)	Ki [2]	stoichiometry N [3]
recombinant cysteine protease inhibitor of Naegleria fowleri (NfCPI), lacking the signal peptide (from UniProt A0A6A5BTM4 30-136) (natural protein)	0.144 nM	–	–	–
B1	–	0.259 nM	0.193 nM	2

From PMC8063937, “A Novel Cysteine Protease Inhibitor of Naegleria fowleri That Is Specifically Expressed during Encystation and at Mature Cysts” (Pathogens, 2021)
